± gives the uncertainty stated by the source.
Test: self-splicing fitness, log relative to wild type (ln ratio); higher = more splicing; Tetrahymena group I intron in knt gene, E. coli kanamycin selection, DiMSum; sequences stand for … in CUCUCU…GGAGGGAAAAGUUAUCAGGCAUGCACCUGGUAGCUAGUCUUUAAACCAAUAGAUUGCAUCGGUUUAAAAGGCAAGACCGUCAAAUUGCGGGAAAGGGGUCAACAGCCGUUCAGUACCAAGUCUCAGGGGAAACUUUGAGAUGGCCUUGCAAAGGGUAUGGUAAUAAGCUGACGGACAUGGUCCUAACCACGCAGCCAAGUCCUAAGUCAACAGAUCUUCUGUUGAUAUGGAUGCAGUUCACAGACUAAAUGUCGGUCGGGGAAGAUGUAUUCUUCUCAUAAGAUAUAGUCGGACCUCUCCUUAAUGGGAGCUAGCGGAUGAAGUGAUGCAACACUGGAGCCGCUGGGAACUAAUUUGUAUGCGAAAGUAUAUUGAUUAGUUUUGGAGUACUCGUGGUCG
Procedure, shortened: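 A randomised library covering all eight P1ex-region intron nucleotides was built with the intron in the knt kanamycin-resistance gene on pET-22b(+) and held in E. coli BL21(DE3). Cells were grown overnight at 37°C or 30°C on LB agar, with or without 25 μg/mL kanamycin, plus 100 μg/mL carbenicillin, 50 μM IPTG and 0.2% rhamnose, and pooled colonies were amplicon-sequenced on an Illumina HiSeq 2500. DiMSum fitness is the error-weighted combination of wild-type-normalised replicate fold changes, kanamycin versus none.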

Sequence	self-splicing fitness (ln) (30 °C)	self-splicing fitness (ln) (37 °C)
UAAAAGCAAUAUUACGUAAA	-1.34 ± 0.077	-1.1 ± 0.09
UAAAAGCAAUAUUACGUAGG	-2 ± 0.083	-1.22 ± 0.11
UAAAAGCAAUAUUACGUAUG	-1.07 ± 0.078	-0.324 ± 0.095
UAAAAGCAAUAUUACGUCAA	-1.57 ± 0.11	-1.4 ± 0.098
UAAAAGCAAUAUUACGUCUU	-0.765 ± 0.058	-0.487 ± 0.076
UAAAAGCAAUAUUACGUGGC	-3.46 ± 0.2	-2.74 ± 0.2
UAAAAGCAAUAUUACGUUCG	-0.052 ± 0.085	-0.0686 ± 0.11
UAACAGCAAUAUUACGAAAA	-3.2 ± 0.21	-1.18 ± 0.15
UAACAGCAAUAUUACGAAUU	-3.02 ± 0.13	-1.86 ± 0.18
UAACAGCAAUAUUACGACGC	-2.37 ± 0.12	-1.76 ± 0.16
UAACAGCAAUAUUACGACGG	-1.27 ± 0.085	-0.26 ± 0.11
UAACAGCAAUAUUACGAGGU	-4.14 ± 0.23	-2.58 ± 0.23
UAACAGCAAUAUUACGAGUG	-0.621 ± 0.038	-0.34 ± 0.056
UAACAGCAAUAUUACGAUGG	-1.82 ± 0.087	-0.665 ± 0.1
UAACAGCAAUAUUACGCAAA	-3.11 ± 0.19	-2.3 ± 0.12
UAACAGCAAUAUUACGCCCA	-0.674 ± 0.12	0.423 ± 0.15
UAACAGCAAUAUUACGCGCA	-0.471 ± 0.078	0.0314 ± 0.12
UAACAGCAAUAUUACGCGCU	-1.93 ± 0.096	-0.612 ± 0.11
UAACAGCAAUAUUACGCUCA	-0.26 ± 0.091	0.174 ± 0.13
UAACAGCAAUAUUACGCUUA	-0.77 ± 0.071	0.122 ± 0.1
UAACAGCAAUAUUACGGAUU	-3.02 ± 0.12	-0.666 ± 0.094
UAACAGCAAUAUUACGGCCC	-2.08 ± 0.35	
UAACAGCAAUAUUACGGGUA	-0.895 ± 0.061	0.0689 ± 0.074
UAACAGCAAUAUUACGGGUC	-3.89 ± 0.17	-2.62 ± 0.2

Sequence	self-splicing fitness (ln) (30 °C)	self-splicing fitness (ln) (37 °C)
UAACAGCAAUAUUACGGUCA	-0.282 ± 0.073	0.714 ± 0.085
UAACAGCAAUAUUACGUACC	-0.513 ± 0.19	-1.7 ± 0.24
UAACAGCAAUAUUACGUAUU	-3.38 ± 0.14	-1.94 ± 0.18
UAACAGCAAUAUUACGUGAA	-1.61 ± 0.065	-0.749 ± 0.083
UAACAGCAAUAUUACGUGAG	-0.729 ± 0.046	-0.471 ± 0.071
UAAGAGCAAUAUUACGAGUG	-3.74 ± 0.23	-1.16 ± 0.22
UAAGAGCAAUAUUACGAUCA	-2.23 ± 0.29	-0.554 ± 0.19
UAAGAGCAAUAUUACGCCAU	-2.59 ± 0.46	-1.46 ± 0.38
UAAGAGCAAUAUUACGCCGA	-2.94 ± 0.47	
UAAGAGCAAUAUUACGCUUA	-3.19 ± 0.32	-2.63 ± 0.35
UAAGAGCAAUAUUACGCUUG	-2.66 ± 0.23	-1.38 ± 0.18
UAAGAGCAAUAUUACGGACG	-1.89 ± 0.2	-1.67 ± 0.26
UAAGAGCAAUAUUACGGAGG	-3.41 ± 0.32	-1.95 ± 0.46
UAAGAGCAAUAUUACGGCUC	-1.82 ± 0.26	-1.32 ± 0.32
UAAGAGCAAUAUUACGGGAU	-3.55 ± 0.31	-2.99 ± 0.28
UAAGAGCAAUAUUACGGUGA	-3.83 ± 0.23	-2.14 ± 0.16
UAAGAGCAAUAUUACGUCGC		-3.39 ± 0.37
UAAGAGCAAUAUUACGUUGC	-2.74 ± 0.29	-2.32 ± 0.4
UAAUAGCAAUAUUACGAAAU		-2.07 ± 0.36
UAAUAGCAAUAUUACGAACG	-0.579 ± 0.071	-0.187 ± 0.082
UAAUAGCAAUAUUACGAACU	-1.37 ± 0.14	-1.62 ± 0.17
UAAUAGCAAUAUUACGAGAC	-3.38 ± 0.28	-2.03 ± 0.28
UAAUAGCAAUAUUACGAGAU	-4.03 ± 0.43	-2.38 ± 0.47
UAAUAGCAAUAUUACGAGGC	-3.59 ± 0.35	-1.46 ± 0.33

Sequence	self-splicing fitness (ln) (30 °C)	self-splicing fitness (ln) (37 °C)
UAAUAGCAAUAUUACGAGUC	-2.97 ± 0.19	-3.77 ± 0.42
UAAUAGCAAUAUUACGCACG	-1.1 ± 0.16	0.193 ± 0.24
UAAUAGCAAUAUUACGCGAG	-1.62 ± 0.14	-1.46 ± 0.13
UAAUAGCAAUAUUACGGACU	-1.25 ± 0.15	-1.43 ± 0.18
UAAUAGCAAUAUUACGGCCC	-2.07 ± 0.34	-0.336 ± 0.46
UAAUAGCAAUAUUACGGCGG	-1.27 ± 0.15	-0.245 ± 0.16
UAAUAGCAAUAUUACGGGUG	-1.9 ± 0.096	-0.875 ± 0.094
UAAUAGCAAUAUUACGGUAU	-3.69 ± 0.21	-2.68 ± 0.23
UAAUAGCAAUAUUACGUAGG	-2.37 ± 0.13	-1.06 ± 0.14
UAAUAGCAAUAUUACGUCCU	-0.907 ± 0.19	-0.798 ± 0.23
UAAUAGCAAUAUUACGUCGU	-2.91 ± 0.34	-0.94 ± 0.23
UAAUAGCAAUAUUACGUGGG	-2.91 ± 0.3	-3.08 ± 0.27
UAAUAGCAAUAUUACGUUUA	-1.86 ± 0.15	-1.81 ± 0.12
UACAAGCAAUAUUACGACGG	-0.767 ± 0.059	-0.442 ± 0.079
UACAAGCAAUAUUACGAGAG	-3.24 ± 0.17	-2.65 ± 0.18
UACAAGCAAUAUUACGAGGA	-2.98 ± 0.2	-1.8 ± 0.14
UACAAGCAAUAUUACGAUUA	-0.0989 ± 0.079	0.278 ± 0.085
UACAAGCAAUAUUACGCACC	-1.62 ± 0.14	-1.42 ± 0.23
UACAAGCAAUAUUACGCCGU	-2.13 ± 0.16	-1.62 ± 0.18
UACAAGCAAUAUUACGCGAC	-3.51 ± 0.27	-1.5 ± 0.22
UACAAGCAAUAUUACGCUGG	-2.54 ± 0.15	-1.87 ± 0.15
UACAAGCAAUAUUACGGAGC	-3.08 ± 0.21	-2.78 ± 0.34
UACAAGCAAUAUUACGUCAU	-3.94 ± 0.16	-1.05 ± 0.096
UACAAGCAAUAUUACGUCCA	-1.06 ± 0.086	-0.297 ± 0.096

Sequence	self-splicing fitness (ln) (30 °C)	self-splicing fitness (ln) (37 °C)
UACAAGCAAUAUUACGUCGA	-1.78 ± 0.08	-0.266 ± 0.082
UACAAGCAAUAUUACGUGUA	-3.33 ± 0.15	-2.69 ± 0.14
UACAAGCAAUAUUACGUGUG	-2.96 ± 0.11	-1.7 ± 0.1
UACAAGCAAUAUUACGUUAA	-3.35 ± 0.14	-1.74 ± 0.092
UACCAGCAAUAUUACGAAAA	-1.43 ± 0.17	-1.11 ± 0.13
UACCAGCAAUAUUACGAAAU	-2.64 ± 0.14	-1.26 ± 0.13
UACCAGCAAUAUUACGACUU	-0.799 ± 0.046	-0.301 ± 0.056
UACCAGCAAUAUUACGAUAA	-0.622 ± 0.093	-0.122 ± 0.1
UACCAGCAAUAUUACGCACU	-0.478 ± 0.063	0.393 ± 0.081
UACCAGCAAUAUUACGCAUC	-1.93 ± 0.095	-1.13 ± 0.095
UACCAGCAAUAUUACGCAUU	-2.42 ± 0.092	-0.373 ± 0.078
UACCAGCAAUAUUACGCCAG	-0.698 ± 0.08	-1.13 ± 0.1
UACCAGCAAUAUUACGCCCG	-0.0448 ± 0.11	-0.0962 ± 0.14
UACCAGCAAUAUUACGCCCU	-0.895 ± 0.12	0.138 ± 0.13
UACCAGCAAUAUUACGCGGA	-1.69 ± 0.079	-1.04 ± 0.082
UACCAGCAAUAUUACGCGUC	-2.06 ± 0.11	-1.13 ± 0.1
UACCAGCAAUAUUACGCUUU	-1.86 ± 0.093	-0.589 ± 0.1
UACCAGCAAUAUUACGGAGA	-1.13 ± 0.07	-0.596 ± 0.073
UACCAGCAAUAUUACGGGAU	-3.25 ± 0.16	-1.53 ± 0.12
UACCAGCAAUAUUACGGGGC	-4.11 ± 0.29	-2.72 ± 0.2
UACCAGCAAUAUUACGGUAU	-3.15 ± 0.16	-2.35 ± 0.18
UACCAGCAAUAUUACGGUCA	-0.0407 ± 0.07	0.125 ± 0.1
UACCAGCAAUAUUACGGUUC	-3.88 ± 0.18	-1.38 ± 0.14
UACCAGCAAUAUUACGUACU	-2.92 ± 0.17	-1.4 ± 0.15

Source: the supplement of paper PMC7877785
